The text below walks through data of article PMC12554370, “MdMAPK6-mediated phosphorylation of MdWRKY9 regulates apple fruit ripening through interaction with MdERF5L”.

Data set [1] has as its target T1, MdERF5L (Malus domestica, UniProt A0A498JN73 1-332). In words: EMSA; cold probe competes; LightShift Chemiluminescent EMSA kit (Thermo), per manufacturer's protocol; buffer, salt, pH and temperature not stated. Particulars: protein: recombinant; tags: GST (pGEX-4T-1); label: biotin (hot probe); blunt. (In general: A gel shift assay detects complexes by their altered migration in electrophoresis.)

Data set [2] concerns the target T1, MdERF5L. The experiment in a line: EMSA; mutations disrupted binding; LightShift Chemiluminescent EMSA kit (Thermo), per manufacturer's protocol; buffer, salt, pH and temperature not stated. Particulars: protein: recombinant; tags: GST (pGEX-4T-1); blunt.
Data set [3] has as its target MdWRKY9 (Malus domestica, UniProt D9ZJG3 1-520). The experiment in a line: EMSA; LightShift Chemiluminescent EMSA kit (Thermo), per manufacturer's protocol; buffer, salt, pH and temperature not stated. Particulars: protein: recombinant; tags: GST (pGEX-4T-1) or His (pET-32a); label: biotin (hot probe); blunt.

T1 sequence (A0A498JN73 entry or part of it): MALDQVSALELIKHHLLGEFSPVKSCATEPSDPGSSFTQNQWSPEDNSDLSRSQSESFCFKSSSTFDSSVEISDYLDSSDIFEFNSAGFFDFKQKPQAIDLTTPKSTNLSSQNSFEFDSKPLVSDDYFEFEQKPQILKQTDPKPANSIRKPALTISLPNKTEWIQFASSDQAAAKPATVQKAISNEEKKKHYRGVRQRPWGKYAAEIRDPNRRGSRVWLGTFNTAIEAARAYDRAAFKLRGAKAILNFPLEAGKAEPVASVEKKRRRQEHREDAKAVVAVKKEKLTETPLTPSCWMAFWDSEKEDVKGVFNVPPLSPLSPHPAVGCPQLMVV
Chain of MdWRKY9 (D9ZJG3 entry or part of it): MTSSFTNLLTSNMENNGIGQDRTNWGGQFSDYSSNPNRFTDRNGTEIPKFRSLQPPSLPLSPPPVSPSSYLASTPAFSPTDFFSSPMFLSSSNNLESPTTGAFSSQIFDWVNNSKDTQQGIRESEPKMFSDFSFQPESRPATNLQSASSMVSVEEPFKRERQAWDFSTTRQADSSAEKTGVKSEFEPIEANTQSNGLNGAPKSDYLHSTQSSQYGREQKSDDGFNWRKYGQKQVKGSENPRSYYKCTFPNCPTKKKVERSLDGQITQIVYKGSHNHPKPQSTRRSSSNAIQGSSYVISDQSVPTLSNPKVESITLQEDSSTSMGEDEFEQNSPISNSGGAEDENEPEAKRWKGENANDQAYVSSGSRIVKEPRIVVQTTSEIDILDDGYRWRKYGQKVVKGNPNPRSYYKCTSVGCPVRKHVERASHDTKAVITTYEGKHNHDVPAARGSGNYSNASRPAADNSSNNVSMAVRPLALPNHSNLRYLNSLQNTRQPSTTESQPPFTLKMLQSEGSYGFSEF

B1: MdACS1-DRE probe (dsDNA)
DNA 1: AAAATAGAGGAGAAAAATGGCCGACAAAATTTGTTGTGGCTACTA
DNA 2: TAGTAGCCACAACAAATTTTGTCGGCCATTTTTCTCCTCTATTTT
Take B1: the binding result in data set [1] is listed as “binds”.

B2: MdACS1-DRE mutant probe (dsDNA)
DNA 1: AAAATAGAGGAGAAAAATGGTCTAGAAAATTTGTTGTGGCTACTA
DNA 2: TAGTAGCCACAACAAATTTTCTAGACCATTTTTCTCCTCTATTTT
As for B2, the binding result in data set [2] is “no binding”.

B3: MdERF5L-W-box probe (dsDNA)
DNA 1: AATTTGTATATCGTTTTCTGGGTCAATGATACGTTTTTTTATATTA
DNA 2: TAATATAAAAAAACGTATCATTGACCCAGAAAACGATATACAAATT
Turning to B3, in data set [3], the binding result was “binds”.
